Experimental findings from paper PMC3616739 are described below.

In the test the target is GST-LEDGF PWWP (1–100) (UniProt O75475). Put plainly: pull-down.

Several values for one entry are separate records, joined by “and”; a condition that tells them apart may be missing. Equal entries are not always repeated.

Chain of GST-LEDGF PWWP (1–100) (O75475 1-100): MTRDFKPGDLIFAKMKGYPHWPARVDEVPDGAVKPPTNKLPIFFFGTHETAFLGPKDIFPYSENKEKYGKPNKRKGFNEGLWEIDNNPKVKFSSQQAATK

As a reminder, the Kd is a measure of binding affinity in units of concentration. A lower Kd goes with tighter binding. “native mononucleosomes (MNs) from SupT1 cells (from UniProt P0C0S8;P62807;P68431;P62805) (complex)”: the dissociation constant (Kd) is 232 nM and 102 nM.
